For two substances, activity results are on record in patent US5972608.

In data set [1] the test system is SalI restriction endonuclease. Briefly: cleavage_in_vitro. Particulars: 125 mM NaCl.
Data set [2] relates to SWI/SNF complex (Saccharomyces cerevisiae). The experiment in a line: cleavage_in_vitro. Particulars: kcat of nucleosome remodeling, SalI-coupled; 1 mM ATP, 125 mM NaCl, 2.5 mM MgCl2; no stimulation without ATP or with ATPgS.

As to 11-mer 5S SalI array template (pCL7c), the activity in data set [1] (naked DNA, 2.5 mM MgCl2, 37 C, +/-0.03e-4) turned out to be 0.000286 U^-1 min^-1.

With “11-mer 5S SalI nucleosome array (pCL7c template with histone octamers)”, the activity was determined as 0.22 min⁻¹ in data set [2] and 9.19e-07 U^-1 min^-1 in data set [1] (second slow phase, nucleosomal DNA, Kconf 3.2e-3, 2.5 mM MgCl2).
